The assay concerns the target T1, GST-17NAnk (GST-tagged N-terminal (1–305) zDHHC17) (murine, UniProt Q80TN5 1-305).
T1 construct: zDHHC17, murine cDNA, N-terminal residues 1–305 with the AR domain; also called GST-17Ank; GST-tagged AR-containing cytosolic region of zDHHC17; source: E. coli BL21(DE3)pLysS, purified (glutathione resin)
T1 sequence (looked up): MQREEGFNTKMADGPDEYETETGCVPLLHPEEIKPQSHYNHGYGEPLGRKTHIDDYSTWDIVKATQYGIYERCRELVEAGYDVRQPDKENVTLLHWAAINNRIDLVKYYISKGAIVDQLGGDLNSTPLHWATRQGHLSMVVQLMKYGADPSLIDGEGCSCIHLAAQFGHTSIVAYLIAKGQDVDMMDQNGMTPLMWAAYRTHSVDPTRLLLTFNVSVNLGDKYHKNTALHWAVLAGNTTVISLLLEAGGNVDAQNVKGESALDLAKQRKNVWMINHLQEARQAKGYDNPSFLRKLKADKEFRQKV
The experiment in a line: pull-down; 20 μg GST-17NAnk (or GST) on 10 μl glutathione-Sepharose, 20 μg His6-CSPα or His6-SNAP25b(93–206) (and competing amounts of the other), overnight at 4 °C, PBS washes, Coomassie staining. The note with it: both partners purified.

B1: His6-CSPα (natural protein, bovine, UniProt Q29455 1-198, looked up)
chain: MADQRQRSLSTSGESLYHVLGLDKNATSDDIKKSYRKLALKYHPDKNPDNPEAADKFKEINNAHAILTDATKRNIYDKYGSLGLYVAEQFGEENVNTYFVLSSWWAKALFIFCGLLTCCYCCCCLCCCFNCCCGKCKPKAPEGEETEFYVSPEDLEAQLQSDEREAADTPIVIQPASATETTQLTADSHPSYHTDGFN
notes: CSPα, bovine cDNA; also called His-tagged CSPα; source: E. coli BL21(DE3)pLysS, purified (Ni2+-NTA)
As for B1, the binding result is “binds”.
